Series [1] deals with ArgD-6xHis, recombinant Synechocystis ArgD (Synechocystis sp. PCC 6803) (UniProt P73133). The series can be described thus: isothermal spectral shift assay; 5 nM labeled ArgD or 20 nM labeled Gun4 (Red NHS dye) titrated with a serial dilution of the unlabelled partner; 25 mM Tris, 0.1% Pluronic F-127, pH 8, 25°C; Monolith X; triplicate.
Series [2] concerns the target 3×FLAG-tagged ArgD (N-acetylornithine aminotransferase) of Synechocystis sp. PCC 6803 (Synechocystis sp. PCC 6803) (UniProt P73133). As to the kind of experiment: co-IP; f.ArgD or f.AstC purified from the soluble fraction of Synechocystis strains (ΔargD or ΔcphB background; cells with nitrate, without or with 1 mM Orn for 24 h) on anti-FLAG M2 gel, eluted with 3xFLAG peptide; SDS-PAGE, stained, blotted and probed with anti-Gun4 and anti-CphB.

Series [3] has the same target. As to the kind of experiment: co-IP; f.ArgD from Synechocystis cells grown with 18 mM nitrate without or with Orn (1 mM for 24 h; 100 μM for 1 h); proteins released from the anti-FLAG resin with 1% SDS instead of FLAG peptide; western blot; WT control. (A western blot detects proteins with antibodies after separation by electrophoresis.)
The target in series [4] is T1, ArgD-6xHis, recombinant Synechocystis ArgD (Synechocystis sp. PCC 6803, UniProt P73133 1-429, 2nd Generation Red NHS dye).
T1 construct: N-acetylornithine aminotransferase ArgD, Synechocystis sp; PCC 6803, gene slr1022; the recombinant protein produced in E. coli is called full-length where the antibodies are described; Construct pET21a-argD; also called labeled ArgD; source: E. coli BL21 (DE3), pET21a, purified (Ni-NTA); not shown: His6, C-terminal, kept
T1 sequence (looked up): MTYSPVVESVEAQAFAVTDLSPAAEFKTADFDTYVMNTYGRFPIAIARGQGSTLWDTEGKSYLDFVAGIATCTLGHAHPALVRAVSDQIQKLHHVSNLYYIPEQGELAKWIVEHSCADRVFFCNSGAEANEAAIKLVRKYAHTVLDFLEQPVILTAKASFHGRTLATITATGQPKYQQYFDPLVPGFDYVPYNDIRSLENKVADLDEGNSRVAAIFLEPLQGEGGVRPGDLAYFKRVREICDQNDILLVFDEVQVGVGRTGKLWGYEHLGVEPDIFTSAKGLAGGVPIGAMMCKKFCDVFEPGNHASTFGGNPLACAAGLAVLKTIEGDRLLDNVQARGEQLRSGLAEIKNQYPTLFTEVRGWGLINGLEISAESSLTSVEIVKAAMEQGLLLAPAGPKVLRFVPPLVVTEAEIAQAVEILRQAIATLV
The series can be described thus: isothermal spectral shift assay; 5 nM labeled ArgD or 20 nM labeled Gun4 (Red NHS dye) titrated with a serial dilution of the unlabelled partner; 25 mM Tris, 0.1% Pluronic F-127, pH 8, 25°C; Monolith X; triplicate. To be noted: both partners purified.

Series [5] has as its target Gun4-6xHis, recombinant Synechocystis Gun4 (Synechocystis sp. PCC 6803). The description is as above.
Series [6] concerns the molecule itself. The series can be described thus: native gel or EMSA; 2D blue native/SDS-PAGE of the f.ArgD anti-FLAG eluate; apparent mass on the BN gel.

With “Gun4-6xHis, recombinant Synechocystis Gun4 (natural protein)”, the Kd (usually the equilibrium constant for the complex coming apart) in series [1] worked out at 0.0558 µM.

“Gun4 protein of Synechocystis sp. PCC 6803 (native) (natural protein)”: the fold more Gun4 co-purified with f.ArgD (cells with 1 mM Orn for 24 h against cells without Orn) in series [2] turned out to be 6 times. In addition, in series [3], the fold enrichment of Gun4 in the f.ArgD pull-down (Orn-treated cells against control) is > 12 × and the fold increase of f.ArgD-co-purified Gun4 (1 h feeding with 100 μM Orn against control) is 6 times.

B1: CphB-6xHis, recombinant Synechocystis CphB (enzyme, Synechocystis sp. PCC 6803, UniProt P73832 1-271, looked up)
chain: MPLSSQPAILIIGGAEDKVHGREILQTFWSRSGGNDAIIGIIPSASREPLLIGERYQTIFSDMGVKELKVLDIRDRAQGDDSGYRLFVEQCTGIFMTGGDQLRLCGLLADTPLMDRIRQRVHNGEISLAGTSAGAAVMGHHMIAGGSSGEWPNRALVDMAVGLGIVPEIVVDQHFHNRNRMARLLSAISTHPELLGLGIDEDTCAMFERDGSVKVIGQGTVSFVDARDMSYTNAALVGANAPLSLHNLRLNILVHGEVYHQVKQRAFPRVT
notes: cyanophycinase CphB, Synechocystis sp; PCC 6803, gene slr2001; the recombinant protein produced in E. coli is called full-length where the antibodies are described; Construct pET21a-cphB; source: E. coli BL21 (DE3), pET21a, purified (Ni-NTA); not shown: His6, C-terminal, kept
For B1, the Kd came out at 29.8 ± 0.96 µM in series [4] and 2.16 µM in series [5].

B2: cyanophycinase CphB of Synechocystis sp. PCC 6803 (native) (enzyme, UniProt P73832 1-271, looked up)
chain: B1 chain
notes: cyanophycinase CphB, Synechocystis sp; PCC 6803, gene slr2001; printed as 29.4 kDa; Migrated like a large oligomer (>200 kDa) on the BN gel; source: endogenous, Synechocystis soluble fraction
Consider B2, for which the binding result in series [6] is reported as “binds”.

B3: 3×FLAG-tagged ArgD (N-acetylornithine aminotransferase) of Synechocystis sp. PCC 6803 (enzyme, UniProt P73133 1-429, looked up)
chain: T1 sequence (looked up)
notes: N-acetylornithine aminotransferase ArgD, Synechocystis sp; PCC 6803, gene slr1022; synthetic argD gene with optimised codon usage cloned into pPD-NFLAG; f.ArgD printed as 49.8 kDa; also called f.ArgD; source: Synechocystis f.argD+/ΔargD or f.argD+/ΔcphB strain (psbAII promoter), soluble fraction; not shown: 3xFLAG, N-terminal, kept
Regarding B3, in series [6], the stoichiometry N – broadly, a count of units in the complex or per binding partner – is 2.

The record behind these values is paper PMC10783636, “Chlorophyll biosynthesis under the control of arginine metabolism” (Cell Reports, 2023).
